Results taken from PMC9812398.
One block for each molecule: values may come before it.

Columns and labels:
[1] = molecular target: stabilized microtubules polymerized from cow brain tubulin (cow) (UniProt Q6B856); assay: TIRF microscopy of microtubule end decoration
[2] = molecular target: human full-length GFP-CLASP2α (human) (UniProt O75122); assay: TIRF microscopy of microtubules on DNA origami-clustered protein

end brightness [1]: 594 a.u.
Molecule: human full-length GFP-CLASP2α (from UniProt O75122-3 1-1515) (natural protein)

time for which half of the microtubules keep end association [2]: 4 h
Molecule: stabilized microtubules polymerized from cow brain tubulin (from UniProt Q6B856 1-445) (complex)

end brightness [1]: 757 a.u.
B1: GFP-L-TOG2-S (domain or fragment)
chain: KVPAPKTSGNPANSARKPGSAGGPKVGAGASKEGGAGAVDEDDFIKAFTDVPSIQIYSSRELEETLNKIREILSDDKHDWDQRANALKKIRSLLVAGAAQYDCFFQHLRLLDGALKLSAKDLRSQVVREACITVAHLSTVLGNKFDHGAEAIVPTLFNLVPNSAKVMATSGCAAIRFIIRHTHVPRLIPLITSNCTSKSVPVRRRSFEFLDLLLQEWQTHSLERHAAVLVETIKKGIHDADAEARVEARKTYMGLRNHFPGEAETLYNSLEPSYQKSLQTYLKSSGSVASLPQSDRSSSSSQESLNRPFSSKWSTANPSTVAGRVSAGSSKASSLPGSLQRSRSDIDVNAAAGAKAHHAAGQSVRSGRLGAGALNAGSYASLEDTSDKLDGTASEDGRVRAKLSAPLAGMGNAKADSRGRSRTKMVSQSQPGSRSGSPGRVLTTTALSTVSSGVQRVLVNSASAQKRSKIPRSQGCSREASPSRLSVARSSRIPRPSVSQGCSREASRESSRDTSPVRSFQPLGPGYGISQSS
